These results are taken from US20220259307A1 (Memorial Sloan Kettering, published 2022).

Broadly, the Kd is the concentration at which binding is half-saturated. For orientation: koff means the rate constant with which the complex falls apart. One may read the kon as the second-order rate constant of association. A higher kon goes with faster complex formation.

The chains are these.
B1: chimeric HIM34×CD3 bispecific antibody (chHIM34 BsAb) (bispecific antibody)
light: DIVMTQSPSSLSASLGGKVTITCKASQDINKYIAWYQHKPGKGPRLLIHYTSTLQPGIPSRFSGSGSGRDYSFSISNLEPEDIATYYCLQYDNLLTFGAGTKLELKRTVAAPSVFIFPPSDEQLKSGTASVVCLLNNFYPREAKVQWKVDNALQSGNSQESVTEQDSKDSTYSLSSTLTLSKADYEKHKVYACEVTHQGLSSPVTKSFNRGECTSGGGGSGGGGSGGGGSQVQLVQSGGGVVQPGRSLRLSCKASGYTFTRYTMHWVRQAPGKCLEWIGYINPSRGYTNYNQKFKDRFTISRDNSKNTAFLQMDSLRPEDTGVYFCARYYDDHYSLDYWGQGTPVTVSSGGGGSGGGGSGGGGSGGGGSGGGGSGGGGSDIQMTQSPSSLSASVGDRVTITCSASSSVSYMNWYQQTPGKAPKRWIYDTSKLASGVPSRFSGSGSGTDYTFTISSLQPEDIATYYCQQWSSNPFTFGCGTKLQITR
heavy: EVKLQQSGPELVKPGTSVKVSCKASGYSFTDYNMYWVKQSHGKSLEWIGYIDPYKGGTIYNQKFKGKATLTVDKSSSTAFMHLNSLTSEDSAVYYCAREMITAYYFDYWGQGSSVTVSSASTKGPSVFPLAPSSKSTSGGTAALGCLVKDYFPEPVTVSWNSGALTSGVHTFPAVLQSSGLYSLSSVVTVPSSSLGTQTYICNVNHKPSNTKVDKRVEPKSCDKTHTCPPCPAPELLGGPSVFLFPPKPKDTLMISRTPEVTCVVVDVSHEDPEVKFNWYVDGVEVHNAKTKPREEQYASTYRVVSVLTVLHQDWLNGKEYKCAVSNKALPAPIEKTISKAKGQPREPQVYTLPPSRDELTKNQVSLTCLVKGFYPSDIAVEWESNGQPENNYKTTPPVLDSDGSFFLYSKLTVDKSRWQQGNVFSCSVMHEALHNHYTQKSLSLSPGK
notes: IgG-scFv format (tetravalent); also called chHIM34×CD3 BsAb; chimeric CD33-BsAb
B2: humanized HIM34 BsAb L4H4 (bispecific antibody, human IgG1, V domains shown)
VH: QVQLVQSGAEVKKPGASVKVSCKASGYSFTDYNMYWVRQAPGQGLEWIGYIDPYKGGTNYAQKFQGRATLTVDKSSSTAYMELSRLRSDDTAVYYCAREMITAYYFDYWGQGSSVTVSS
VL: DIQMTQSPSSLSASVGDRVTITCKASQDINKYIAWYQHKPGKAPKLLIYYASNLQPGVPSRFSGSGSGRDFTFTISSLQPEDIATYYCLQYDNLLTFGAGTKLELK
notes: Tested as a humanized HIM34×CD3 BsAb in the IgG-scFv format (human IgG1 N297A/K322A, humanized OKT3 scFv on the light chain)
B3: humanized HIM34 BsAb L4H7 (bispecific antibody, human IgG1, V domains shown)
VH: QVQLQQSGAEVKKPGASVKVSCKASGYSFTDYNMYWVRQAPGQGLEWIGYIDPYKGGTIYNQKFKGRATLTRDTSISTAYMELSRLRSDDTAVYYCAREMITAYYFDYWGQGSSVTVSS
VL: DIQMTQSPSSLSASVGDRVTITCKASQDINKYIAWYQHKPGKAPKLLIYYASNLQPGVPSRFSGSGSGRDFTFTISSLQPEDIATYYCLQYDNLLTFGAGTKLELK
notes: as for B2
B4: humanized HIM34 BsAb L3H4 (bispecific antibody, human IgG1, V domains shown)
VH: QVQLVQSGAEVKKPGASVKVSCKASGYSFTDYNMYWVRQAPGQGLEWIGYIDPYKGGTNYAQKFQGRATLTVDKSSSTAYMELSRLRSDDTAVYYCAREMITAYYFDYWGQGSSVTVSS
VL: DIQMTQSPSSLSASVGDRVTITCKASQDINKYIAWYQHKPGKAPKLLIHYTSTLETGVPSRFSGSGSGTDFTFTISSLQPEDIATYYCLQYDNLLTFGAGTKLELK
notes: Tested as a humanized HIM34×CD3 BsAb in the IgG-scFv format: human IgG1 with N297A/K322A, humanized OKT3 scFv on the light chain C-terminus via (G4S)3
B5: humanized HIM34 BsAb L4H1 (bispecific antibody, human IgG1, V domains shown)
VH: QVQLQQSGAEVVKPGASVKVSCKASGYSFTDYNMYWVRQAPGQGLEWIGYIDPYKGGTNYAQKFQGRVTMTVDKSSSTAYMELSRLRSDDTAVYYCAREMITAYYFDYWGQGSSVTVSS
VL: DIQMTQSPSSLSASVGDRVTITCKASQDINKYIAWYQHKPGKAPKLLIYYASNLQPGVPSRFSGSGSGRDFTFTISSLQPEDIATYYCLQYDNLLTFGAGTKLELK
notes: as for B2

For one test, the target named is full length CD33 on cells (human, UniProt P20138 18-364). Kind of test: cell-based or functional assay.
Chain of full length CD33 on cells (P20138 18-364): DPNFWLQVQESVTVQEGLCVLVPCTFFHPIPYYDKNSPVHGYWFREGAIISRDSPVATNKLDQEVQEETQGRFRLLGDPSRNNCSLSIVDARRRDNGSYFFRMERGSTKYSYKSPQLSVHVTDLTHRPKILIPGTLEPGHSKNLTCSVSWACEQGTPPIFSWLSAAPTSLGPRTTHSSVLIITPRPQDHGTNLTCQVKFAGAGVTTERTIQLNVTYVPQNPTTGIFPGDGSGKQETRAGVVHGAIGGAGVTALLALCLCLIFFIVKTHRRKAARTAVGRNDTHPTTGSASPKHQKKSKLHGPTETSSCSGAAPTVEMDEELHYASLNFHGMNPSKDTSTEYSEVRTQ
For the molecule B1, the “EC50 of T cell cytotoxicity, 4-hour 51Cr release assay, C1498-CD33 cells” value was 0.001 pM and the “EC50 of T cell cytotoxicity, 4-hour 51Cr release assay, THP1 cells” value was 0.2 pM.

The target in another test is T1, CD33 (immobilized on CM5 sensor chip) (UniProt P20138 18-259, limits assumed).
T1 construct: also called CD33 antigen
T1 sequence (P20138 18-259 limits assumed): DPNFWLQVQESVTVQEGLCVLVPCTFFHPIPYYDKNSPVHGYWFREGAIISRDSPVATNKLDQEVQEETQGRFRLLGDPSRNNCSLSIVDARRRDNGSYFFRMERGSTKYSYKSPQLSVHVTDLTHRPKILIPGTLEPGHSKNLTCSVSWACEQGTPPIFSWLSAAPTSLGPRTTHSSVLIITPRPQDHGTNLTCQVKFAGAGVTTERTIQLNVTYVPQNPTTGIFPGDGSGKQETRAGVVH
Kind of test: SPR (Biacore T-200), CD33 immobilized on CM5 chip. (In SPR one partner is held on a chip, and binding of the other changes the refractive index at the surface.)
B2 displayed a Kd of 1650 pM, a koff of 0.00743 s⁻¹ and a kon of 4.5e+06 M⁻¹ s⁻¹.
Taken in the same sequence, the figures for B3 were 198 pM, 0.00017 s⁻¹ and 861000 M⁻¹ s⁻¹.
B4 showed a Kd of 955 pM, a koff of 0.00175 s⁻¹ and a kon of 1.84e+06 M⁻¹ s⁻¹.
The like results for B5 were, in that order, 1210 pM, 0.00597 s⁻¹ and 4.95e+06 M⁻¹ s⁻¹.
The like results for B1 were, in that order, 128 pM, 0.000117 s⁻¹ and 914000 M⁻¹ s⁻¹.
